Measurements taken from patent CN111393529A (KANGYUAN BOCHUANG BIO TECH BEIJING CO LTD, dated 2020).

B1: 抗体I3E3 (antibody, V domains shown)
VH: EVKLVESGGGLVQPGGSLRLSCATSGFTFSDFYMGWVRQPPGKRLEWIAASRNKAYDYTTAYSASVKGRFIVSRDTSQSILYLQMNALRAEDTAIYYCARDDGYYPMDYWGQGTSVTVSS
VL: DIQLTQSPASLAVSLGQRATISCRASKSVSTSGYSYMHWYQQKPGQPPKLLIYLASNLESGVPARFSGSGSGTDFTLNIHPVEEEDAATYYCQHSRELPLTFGAGTKLELKR
B2: 抗体H1K1 (antibody, V domains shown)
VH: EVQLQQPGSVLVRPGTSVKLSCKASGYTFTSSWIHWARQRPGQGLEWIGDIHPNSGNTNYNEKFKGKATLTVDTSSSTAYVDLSSLTSEDSAVYYCVRSYGNYKDYYGMDYWGQGTSVTVSS
VL: DILMTQSPASLAVSLGQRATISCKASQSVDYDGDSYMNWYQQKPGQPPKLLIYAASNLESGIPARFSGSGSGTDFTLNIHPVEEEDAATYYCQQSNEDPYTFGGGTKLEIKR
B3: 抗体H1E6 (antibody, V domains shown)
VH: EVKLVESGAELVKPGTSVRLSCKASGYTFTSYDINWVRQRPEQGLEWIGWIFPGDGSTKYNEKFKGKATLTTDKSSSTVYMQLSRLTSEDSAVYFCARWDGYYEGDYFDNWGQGTTLTVSS
VL: DIVMTQSPSSLSASLGGKVTITCKASQDINKYIAWYQHKPGKGPRLLIHYTSTLQPGIPSRFSGSGSGRDYSFNISNLEPEDIATYYCLQYVNLYTFGGGTKLEIKR

molecular target: T1, OX40蛋白胞外区与小鼠IgG2a-FC的融合蛋白 (human; mouse, UniProt P43489 29-214); test: SPR, Biacore T200, antibody captured on CM5 chip, OX40-mouse IgG2a Fc as analyte
T1 construct: also called 抗原OX40小鼠IgG2a Fc标签蛋白; 实施例1中的融合蛋白; not shown: Mouse IgG2a Fc, from Genbank AAH31470.1
T1 sequence: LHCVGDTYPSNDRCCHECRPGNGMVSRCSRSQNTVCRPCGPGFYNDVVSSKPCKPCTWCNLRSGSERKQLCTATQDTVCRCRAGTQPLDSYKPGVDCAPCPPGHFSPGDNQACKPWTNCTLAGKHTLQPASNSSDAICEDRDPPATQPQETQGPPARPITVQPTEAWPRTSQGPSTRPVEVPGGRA

Binder | Kd [nM]
B1 | 4.4
B2 | 11
B3 | 5.1
